Laboratory results: patent US9540424B2, “Serum albumin binding molecules” (BRISTOL-MYERS SQUIBB COMPANY, priority 2010, dated 2017)
Values joined by “and” are separate entries in the source; they are usually repeats but may differ in a detail not shown here. Identical values can stand only once. No end group written: not given here.

Columns and labels:
[1] = system: HEK parental cells; assay: cAMP levels in HEK parental cells; type: cell-based, human
[2] = biological target: T1, human NPY Y4 receptor (Homo sapiens, UniProt P50391); assay: GTPγS binding functional assay: NPY Y4 receptor membranes; type: biochemical
T1 construct: expressed in transfected cells; host or cells: CHO cells (membrane preparation)
Description: Peptide YY (PYY) and pancreatic polypeptide (PP) are native satiety factors secreted from intestine and pancreas, respectively, in response to food ingestion, and are reduced upon fasting. PYY and PP may both be isolated in their full-length form which are 36-residue peptide amides. PYY can also be further cleaved by the enzyme DPPIV into a shorter biologically active form PYY(3-36). Peripheral injection of PYY(3-36) or PP causes reduction in food intake and body weight in animal models and in humans. Patients with morbid obesity have both reduced basal and meal-stimulated PYY(3-36) and/or PP levels. In contrast, patients with anorexia, or weight loss after bypass surgery, have higher than normal plasma PYY(3-36) and/or PP. Agonism of PYY(3-36) and PP are of great therapeutic value in treating obesity and metabolic diseases. NPY Y2 and Y4 are receptors with the highest affinity to PYY(3-36) and PP, respectively. NPY receptors belong to the G-protein coupled receptor family. Upon agonist stimulation, the NPY receptor may stimulate the down-streamed G-protein, exchanging its bound GDP for a GTP. […]
One T150 flask of recombinant CHO cells over-expressing human NPY Y2 or Y4 receptors were grown in F-12 medium (HAM, with L-glutamine) with G418 at 0.5 mg/ml until confluent. […] Protein concentration was measured and aliquots were stored at −80° C. until use. […]

[3] = Differential Scanning calorimetry (DSC) thermostability of midscaled SABAs; type: physicochemical; conditions: 1 mg/ml solution, 5° C. to 95° C. at 1 degree per minute
Description: Differential Scanning calorimetry (DSC) analyses of the midscaled SABAs were performed to determine their respective Tm's. A 1 mg/ml solution was scanned in a N-DSC II calorimeter (calorimetry Sciences Corp) by ramping the temperature from 5° C. to 95° C. at a rate of 1 degree per minute under 3 atm pressure. The data was analyzed vs. a control run of the appropriate buffer using a best fit using Orgin Software (OrginLab Corp).

[4] = biological target: RhSA (Macaca mulatta, UniProt Q28522); assay: Biacore kinetics of SABAs on immobilized serum albumin: RhSA; type: binding, rhesus
Description: In addition, binding to albumin was carried out under various pH conditions ranging from pH 5.5 to pH 7.4.

[5] = biological target: MuSA (Mus musculus, UniProt P07724); assay: Biacore kinetics of SABAs on immobilized serum albumin: MuSA; type: binding
[6] = Half-life of HSA and of SABA1-4 with or without HSA in mice (ELISA, WinNonlin); type: in vivo, Ncr nude female mice
Description: The pharmacokinetic parameters of each Adnectin™ were determined using non-compartmental modeling with WinNonlin software.

[7] = Single dose pharmacokinetics of SABA1.1 and SABA5.1 in cynomolgus monkeys; type: in vivo; conditions: 1 mpk IV, individual monkeys #1 and #2
Description: The pharmacokinetics were evaluated using a quantitative ELISA-based assay that was developed to detect the Adnectin™ in plasma samples.

[8] = Analytical size exclusion chromatography (SEC) of SABAs; type: physicochemical; conditions: midscaled material
Description: Size exclusion chromatography (SEC) was performed on the SABAs resulting from the HTPP. SEC of HTPP derived material was performed using a Superdex 200 5/150 or Superdex 75 5/150 column (GE Healthcare) on an Agilent 1100 or 1200 HPLC system with UV detection at A214 nm and A280 nm and with fluorescence detection (excitation=280 nm, emission=350 nm). A buffer of 100 mM sodium sulfate, 100 mM sodium phosphate, 150 mM sodium chloride, pH 6.8 at appropriate flow rate of the SEC column employed. Gel filtration standards (Bio-Rad Laboratories, Hercules, Calif.) were used for molecular weight calibration.
Midscale expression and purification yielded highly pure and active Adnectins™ that were expressed in a soluble form and purified from the soluble fraction of the bacterial cytosol.
Standard size exclusion chromatography (SEC) was performed on the candidate SABAs resulting from the midscale process. SEC of midscaled material was performed using a Superdex 200 10/30 or on a Superdex 75 10/30 column (GE Healthcare) on an Agilent 1100 or 1200 HPLC system with UV detection at A214 nm and A280 nm and with fluorescence detection (excitation=280 nm, emission=350 nm). A buffer of 100 mM sodium sulfate, 100 mM sodium phosphate, 150 mM sodium chloride, pH 6.8 at appropriate flow rate of the SEC column employed. Gel filtration standards (Bio-Rad Laboratories, Hercules, Calif.) were used for molecular weight calibration.

[9] = biological target: HSA (Homo sapiens, UniProt P02768); conditions: binding to HSA from pH 7.4 down to pH 5.5; symbols not defined
[10] = biological target: T2, Human serum albumin (Homo sapiens, UniProt P02768); assay: SPR (ProteOn XPR36) binding of SABA-neuropeptide fusions to Human Serum Albumin; conditions: 25° C., average of two experiments
T2 construct: purchased Novozymes Recombumin
Description: Surface Plasmon Resonance (SPR) is a direct binding technique by which molecular interactions can be observed in real time. For these experiments, SPR binding studies were performed using a ProteOn XPR36 instrument (BioRad Laboratories). The running buffer, phosphate buffered saline 0.05% Tween 20 pH 7.4, was purchased from Teknova (cat #P1192) and all experiments were run at 25° C. Human serum albumin was directly immobilized on a BioRad GLC chip via amine coupling as per manufacturer's guidelines using amine coupling reagents purchased from BioRad Laboratories. Human serum albumin was purchased from Novozymes (Recombumin™). About 5000 resonance units (RU) of human serum albumin were immobilized onto 4 separate lanes of the GLC chip surface. For each analyte, five concentrations ranging from 15.6 nM to 250 nM were injected over the surface at 30 μl/min for 240 seconds. The dissociation was monitored for 600 seconds. The surface was regenerated with 100 mM HCl. The resultant data were fitted to a Langumuir 1:1 binding model using the ProteOn Manager Software. The experiment was repeated with a different concentration range. In this second experiment, 5 concentrations ranging from 500 nM to 32 nM were injected over the surfaces, and the data analyzed as above. The KD is the disassociation constant. Smaller numbers indicate tighter binding to serum albumin. Molecules covalently attached to SABA that bind to serum albumin display longer in vivo pharmokinetic half-lives, as described earlier with respect to SABA-FGF-21 fusions.

T1 sequence (P50391 whole entry): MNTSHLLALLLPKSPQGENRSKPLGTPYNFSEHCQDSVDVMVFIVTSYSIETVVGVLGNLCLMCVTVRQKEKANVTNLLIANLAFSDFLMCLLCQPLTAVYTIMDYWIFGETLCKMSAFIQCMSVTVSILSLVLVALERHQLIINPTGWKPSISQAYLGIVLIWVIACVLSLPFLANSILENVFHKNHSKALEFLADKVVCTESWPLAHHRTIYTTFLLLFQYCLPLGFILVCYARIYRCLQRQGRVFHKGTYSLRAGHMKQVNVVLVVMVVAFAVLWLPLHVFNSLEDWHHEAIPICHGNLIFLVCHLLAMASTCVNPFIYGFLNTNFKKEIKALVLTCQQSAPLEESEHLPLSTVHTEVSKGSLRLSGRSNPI
MuSA, sequence (P07724 25-608): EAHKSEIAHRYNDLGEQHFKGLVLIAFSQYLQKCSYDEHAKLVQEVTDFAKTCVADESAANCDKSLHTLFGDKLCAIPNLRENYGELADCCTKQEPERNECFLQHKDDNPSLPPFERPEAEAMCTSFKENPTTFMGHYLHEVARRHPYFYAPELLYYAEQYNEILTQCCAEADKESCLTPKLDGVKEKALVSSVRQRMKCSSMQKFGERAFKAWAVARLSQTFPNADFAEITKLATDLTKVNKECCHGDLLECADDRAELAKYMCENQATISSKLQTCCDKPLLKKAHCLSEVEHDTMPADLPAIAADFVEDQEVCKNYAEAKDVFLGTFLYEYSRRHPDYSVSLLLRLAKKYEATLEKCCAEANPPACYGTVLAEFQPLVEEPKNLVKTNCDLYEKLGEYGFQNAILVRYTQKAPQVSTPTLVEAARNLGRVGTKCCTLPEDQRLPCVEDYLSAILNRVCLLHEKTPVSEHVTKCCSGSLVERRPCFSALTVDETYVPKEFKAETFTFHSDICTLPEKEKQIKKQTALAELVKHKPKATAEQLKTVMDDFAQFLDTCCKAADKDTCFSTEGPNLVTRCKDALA
RhSA, sequence (Q28522 17-600): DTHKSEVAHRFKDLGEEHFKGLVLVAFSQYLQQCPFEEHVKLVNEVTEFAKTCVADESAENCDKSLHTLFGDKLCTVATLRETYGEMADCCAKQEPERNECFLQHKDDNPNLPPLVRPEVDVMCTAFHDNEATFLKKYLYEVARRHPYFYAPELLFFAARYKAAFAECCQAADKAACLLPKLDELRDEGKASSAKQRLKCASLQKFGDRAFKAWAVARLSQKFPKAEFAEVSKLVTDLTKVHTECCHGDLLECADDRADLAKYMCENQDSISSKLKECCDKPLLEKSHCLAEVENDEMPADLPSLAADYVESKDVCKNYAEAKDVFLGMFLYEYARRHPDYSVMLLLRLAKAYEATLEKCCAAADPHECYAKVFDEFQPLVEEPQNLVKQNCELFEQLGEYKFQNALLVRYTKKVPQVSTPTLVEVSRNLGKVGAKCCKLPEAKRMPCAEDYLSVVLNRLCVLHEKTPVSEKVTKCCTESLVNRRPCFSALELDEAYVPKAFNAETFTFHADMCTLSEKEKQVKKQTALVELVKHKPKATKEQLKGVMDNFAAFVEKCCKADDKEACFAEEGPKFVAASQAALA

Molecule: KCNTATCATQRLANFLVRSSNNLGPVLPPTNVGSNTY [Amylin Control Peptide, reference compound]
- effect on cAMP levels in the HEK parental cells [1]: no significant effect

Molecule: APLEPMYPGDYATPEQMAQYETQLRRYINTLTRPRY-NH2 [PP Control Peptide]
- Efficacy [2]: 100
- EC50 ([2]; read-out: Potency (EC50)): 1.7 nM

B1: SABA1.1: core SABA1 with N-terminal MGVSDVPRDLE, C-terminal EIDKPSQ and His6 tag; SEQ ID NO: 89 (protein)
chain: MGVSDVPRDLEVVAATPTSLLISWHSYYEQNSYYRITYGETGGNSPVQEFTVPYSQTTATISGLKPGVDYTITVYAVYGSKYYYPISINYRTEIDKPSQHHHHHH
- DSC (Tm) [3]: 63.9 °C
- cross reaction with RhSA [4]: cross reacted
- cross reaction with MuSA [5]: did not cross react
- PK (T½) Mice ([6]; co-injected with HSA (3-4 molar excess), tail vein): 5.6 h
- half-life in mice plasma ([6]; injected without HSA): 0.56 h
- increase in half life when co-injected with HSA ([6]; with HSA vs without HSA, mice): ~10 fold
- AUCall [7]: 673.7 µg·h/mL and 625.1 µg·h/mL
- Cl_obs [7]: 1.45 mL/h/kg and 1.60 mL/h/kg
- Cmax [7]: 9030 ng/mL and 7240 ng/mL
- Vz_obs [7]: 0.2008 L/kg and 0.3152 L/kg
- t½ [7]: 95.8 h and 136.6 h
- SEC Dimer (%) [8]: 7.7%
- SEC Monomer (%) [8]: 92.3%
- Resistant to pH 7.4→5.5? [9]: fits biochemical criteria for pH resistance and affinity/kinetics down to pH 5.5

B2: SABA1-AMYv25: SEQ ID NO: 328; SABA1.7-(ED)5G-Cys conjugated to Maleimide-PEG20-Amylin-CONH2 (conjugate)
chain: MGVSDVPRDLEVVAATPTSLLISWHSYYEQNSYYRITYGETGGNSPVQEFTVPYSQTTATISGLKPGVDYTITVYAVYGSKYYYPISINYRTEIEDEDEDEDEDGC
modifications: Maleimide-PEG20-Amylin-CONH2 conjugated via Cys
- Koff (1/s) [10]: 2.41 10^−4 1/s
- Kon (1/Ms) [10]: 9.34 10^3 1/Ms
- effect on cAMP levels in the HEK parental cells [1]: no significant effect
